Results on one molecule are retold here after patent publication US20240360214A1 (Pfizer, published 2024).

Usually IC50 stands for the concentration at which inhibition is half-maximal. In general, EC50 refers to the concentration at which the effect is half-maximal. Read a high EC50 as lower potency in that assay. As usually defined, the Kd is the constant that tells how readily two partners part at equilibrium. Broadly, the koff is the rate constant with which the complex falls apart. For orientation: kon means the rate constant with which the complex forms. The term t½ denotes how long it takes for the measured level to halve.

The target in assay [1] is T1, LILRB2 expressed on THP1 cells (human, UniProt Q8N423 22-597).
T1 construct: whole, on cells; also called THP1 LILRB2 expressing cells; THP1-LILRB2 cells
The experiment in a line: flow cytometry competition with PE HLA-G tetramer on THP1-LILRB2 cells; upper end of the printed range 1.7-6 nM. The procedure: (§1) LILRB1 or LILRB2 overexpressing THP1 cells were prepared in FACS buffer (0.5% BSA in PBS) and seeded in 100 μl/well (96 well plate) at 1λ10⁶ cells/ml concentration. The tested antibodies were serially diluted 3-fold into assay buffer starting from 200 nM. 40 μl of serial diluted antibody together with 40 μl of PE labelled HLA-G tetramer (FRED HUTCH IMT40509) at 2 ug/ml were added to each well and incubated on ice for 1 hour. The cells were washed 2 times with FACS buffer and resuspended in 50 μl/well FACS buffer containing 1:1000 dilution of LIVE/Dead fixable violet dead cell stain (Invitrogen #L34964), incubated on ice for 15 minutes. The cells were then washed with FACS buffer for 2 times and resuspended in 80 μl of Cytofix buffer (BD Cat #554655).

The target of assay [2] is T1, LILRB2 expressed on THP1 cells. The experiment in a line: flow cytometry competition with PE HLA-G tetramer on THP1-LILRB2 cells (THPB2). The procedure: as §1
For orientation: In flow cytometry, cells or beads pass a laser one at a time.

For assay [3] the target is unchanged. The assay is described as follows: flow cytometry competition with PE HLA-G tetramer on THP1-LILRB2 cells; lower end of the printed range 1.7-6 nM. The procedure: as §1
For assay [4], the target named is huLILRA1 (human, UniProt O75019 17-461, limits assumed). The experiment in a line: SPR (Biacore), antibody captured. A general note: In SPR one partner is held on a chip, and binding of the other changes the refractive index at the surface.
The target in assay [5] is huLILRA5 (human, UniProt A6NI73 42-268, limits assumed). The experiment in a line: SPR (Biacore), antibody captured.
The target of assay [6] is huLILRA2 (human, UniProt Q8N149 24-449, limits assumed). The experiment in a line: SPR (Biacore), antibody captured.
For assay [7], the target named is T2, human LILRB2 (huLILRB2), purified recombinant protein (human, UniProt Q8N423 22-458, limits assumed).
T2 construct: Bought protein, used as the SPR analyte and as the ELISA coat; also called huLILIB2
The experiment in a line: SPR (Biacore 8K, 37 C), antibody captured by anti-human Fc, huLILRB2 as analyte, 1:1 fit. The procedure:
Biacore kinetic assays were conducted at 37° C. with a collection rate of 10 Hz using the Biacore 8K and 8K+ instruments (Cytiva). […] The final capture levels of the antibodies ranged from 20 resonance units (RU) to 60 RU. HBS-EP+pH 7.4 (10 mM HEPES pH 7.4, 150 mM NaCl, 3 mM EDTA, 0.05% Tween 20) was used as sample and running buffer. Flow cell 1 was used as a reference flow cell. Two-fold serial dilutions of human LILRB2 or LILRB1 (R&D Systems, Catalog number: 8429-T4) were prepared with concentrations from 45 nM to 1.667 nM for LILRB2; 405 nM to […] for LILRB1. Dilutions were prepared in duplicate and injected over all flow cells for 60 s at flow rate of 50 μl per minute. Dissociation was monitored for 600 s and the surface was regenerated with two 30 s injections of 3M MgCl₂ at flow rate of 50 μl per minute. The resulting data was double referenced (Myszka, D. G. Improving biosensor analysis. J. Mol. Recognit. 12:279-284; (1999). Rate constants and affinities were determined by fitting the sensorgram data to a Langmuir 1:1 model using Biacore Insight Evaluation software version 3.0.12 (Cytiva).

Bounds are passed on as bounds.

T1 sequence (Q8N423 22-597): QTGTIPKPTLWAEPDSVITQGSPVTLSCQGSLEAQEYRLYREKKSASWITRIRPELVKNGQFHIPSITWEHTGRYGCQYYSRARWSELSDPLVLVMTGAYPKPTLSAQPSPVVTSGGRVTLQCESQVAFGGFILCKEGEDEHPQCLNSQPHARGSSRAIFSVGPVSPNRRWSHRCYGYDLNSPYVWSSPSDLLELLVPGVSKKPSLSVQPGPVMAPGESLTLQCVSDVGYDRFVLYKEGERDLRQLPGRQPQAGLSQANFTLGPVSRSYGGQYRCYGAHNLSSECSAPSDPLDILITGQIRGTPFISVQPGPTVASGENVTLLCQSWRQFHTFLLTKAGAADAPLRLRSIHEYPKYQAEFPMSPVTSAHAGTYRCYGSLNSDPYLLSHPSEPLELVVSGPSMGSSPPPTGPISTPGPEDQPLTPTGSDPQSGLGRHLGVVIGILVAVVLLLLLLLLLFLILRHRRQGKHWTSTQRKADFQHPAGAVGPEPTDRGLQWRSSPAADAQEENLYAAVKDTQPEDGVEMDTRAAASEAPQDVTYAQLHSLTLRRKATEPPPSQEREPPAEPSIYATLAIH
T2 sequence (Q8N423 22-458 limits assumed): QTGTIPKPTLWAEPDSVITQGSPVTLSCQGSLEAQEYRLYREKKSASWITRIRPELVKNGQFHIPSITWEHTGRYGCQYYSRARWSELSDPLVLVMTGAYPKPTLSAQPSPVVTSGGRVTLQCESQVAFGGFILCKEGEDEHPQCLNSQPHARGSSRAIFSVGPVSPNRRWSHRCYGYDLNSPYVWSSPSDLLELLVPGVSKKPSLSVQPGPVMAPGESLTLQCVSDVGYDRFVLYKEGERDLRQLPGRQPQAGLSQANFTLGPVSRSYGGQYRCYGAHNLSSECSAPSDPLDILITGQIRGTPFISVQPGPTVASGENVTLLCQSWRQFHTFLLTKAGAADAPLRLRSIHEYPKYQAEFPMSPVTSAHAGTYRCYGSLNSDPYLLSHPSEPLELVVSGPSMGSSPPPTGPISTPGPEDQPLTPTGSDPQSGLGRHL
huLILRA5, sequence (A6NI73 42-268 limits assumed): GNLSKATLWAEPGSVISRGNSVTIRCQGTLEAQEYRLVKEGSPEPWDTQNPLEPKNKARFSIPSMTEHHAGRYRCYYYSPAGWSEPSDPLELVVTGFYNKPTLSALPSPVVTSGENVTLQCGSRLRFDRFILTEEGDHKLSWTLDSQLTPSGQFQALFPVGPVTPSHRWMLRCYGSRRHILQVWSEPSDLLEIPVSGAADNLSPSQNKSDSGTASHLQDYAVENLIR
huLILRA1, sequence (O75019 17-461 limits assumed): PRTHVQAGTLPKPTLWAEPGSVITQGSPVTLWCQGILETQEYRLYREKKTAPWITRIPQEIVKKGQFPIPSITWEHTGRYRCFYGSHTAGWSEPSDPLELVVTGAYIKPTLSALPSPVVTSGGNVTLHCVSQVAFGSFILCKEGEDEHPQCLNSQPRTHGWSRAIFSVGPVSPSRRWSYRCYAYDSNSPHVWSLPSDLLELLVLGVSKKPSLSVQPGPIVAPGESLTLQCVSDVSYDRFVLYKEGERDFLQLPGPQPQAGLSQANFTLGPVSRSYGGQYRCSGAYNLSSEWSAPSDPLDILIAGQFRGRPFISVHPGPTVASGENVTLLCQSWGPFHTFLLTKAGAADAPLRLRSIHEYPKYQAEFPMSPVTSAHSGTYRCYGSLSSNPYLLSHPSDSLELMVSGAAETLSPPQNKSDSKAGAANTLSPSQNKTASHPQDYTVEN
huLILRA2, sequence (Q8N149 24-449 limits assumed): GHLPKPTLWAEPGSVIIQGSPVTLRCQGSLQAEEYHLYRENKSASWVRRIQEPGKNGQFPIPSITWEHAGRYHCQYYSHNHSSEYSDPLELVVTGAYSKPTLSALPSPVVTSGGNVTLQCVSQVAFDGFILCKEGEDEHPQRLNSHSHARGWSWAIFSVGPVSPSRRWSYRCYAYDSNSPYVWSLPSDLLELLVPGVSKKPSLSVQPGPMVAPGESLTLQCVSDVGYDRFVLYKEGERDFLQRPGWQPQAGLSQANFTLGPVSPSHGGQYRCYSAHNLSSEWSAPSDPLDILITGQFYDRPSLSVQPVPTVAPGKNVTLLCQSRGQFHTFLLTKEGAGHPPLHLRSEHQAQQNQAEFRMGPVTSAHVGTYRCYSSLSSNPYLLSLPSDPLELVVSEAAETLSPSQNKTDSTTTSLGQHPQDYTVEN

B1: anti-LILRB2 antibody Ab-B2-1825 (antibody, human IgG1, lambda, V domains shown)
VH: EVQLLESGGGLVQPGGSLRLSCAASGFTFSSYAMSWVRQAPGKGLEWVSAISGSGGSTYYADSVKGRFTISRDNSKNTLYLQMNSLRAEDTAVYYCWRWLNLGDAFDIWGQGTMVTVSS
VL: QSVLTQPPSASGTPGQRVTISCTGSSSNIGSNTVNWYQQLPGTAPKLLIYSDNQRPSGVPDRFSGSTSGTSASLAISGLRSEDEADYFCATWEDVLAGYVVFGGGTKLTVLG
In turn, B1 displayed an IC50 in assay [1] not above 6 nM. The molecule also displayed an EC50 in assay [2] of 3.43 nM. In addition, the IC50 in assay [3] is not below 1.7 nM. Also, the binding result in assay [4] was “no binding”. Also, the binding result in assay [5] was “no binding”. Also, the binding result in assay [6] was “no binding”. In addition, in assay [7], the Kd came out at 0.59 nM, the koff came to 0.000276 s⁻¹, the kon was 810000 M⁻¹ s⁻¹ and the “t½” value amounted to 54.2 min.
